We go through one molecule from article PMC10507807, “De novo design of a stapled peptide targeting SARS-CoV-2 spike protein receptor-binding domain” (RSC Medicinal Chemistry, 2023).

The assay has as its target recombinant SARS-CoV-2 spike B.1.617.2 with His-tag (SARS-CoV-2), P0DTC2. Briefly: BLI. In general terms: Biolayer interferometry detects binding as a change in optical thickness at a sensor tip.

What is called Kd is the equilibrium constant for the complex coming apart. Regarding GTEWLYKVWKAFVDNMS (designed binder, modifications not checked) [stapled peptide pep39], the Kd was found to be 4.1 µM.
